T1: APG30130-L32-nAPG07433.1 (synthetic)
T1 chain: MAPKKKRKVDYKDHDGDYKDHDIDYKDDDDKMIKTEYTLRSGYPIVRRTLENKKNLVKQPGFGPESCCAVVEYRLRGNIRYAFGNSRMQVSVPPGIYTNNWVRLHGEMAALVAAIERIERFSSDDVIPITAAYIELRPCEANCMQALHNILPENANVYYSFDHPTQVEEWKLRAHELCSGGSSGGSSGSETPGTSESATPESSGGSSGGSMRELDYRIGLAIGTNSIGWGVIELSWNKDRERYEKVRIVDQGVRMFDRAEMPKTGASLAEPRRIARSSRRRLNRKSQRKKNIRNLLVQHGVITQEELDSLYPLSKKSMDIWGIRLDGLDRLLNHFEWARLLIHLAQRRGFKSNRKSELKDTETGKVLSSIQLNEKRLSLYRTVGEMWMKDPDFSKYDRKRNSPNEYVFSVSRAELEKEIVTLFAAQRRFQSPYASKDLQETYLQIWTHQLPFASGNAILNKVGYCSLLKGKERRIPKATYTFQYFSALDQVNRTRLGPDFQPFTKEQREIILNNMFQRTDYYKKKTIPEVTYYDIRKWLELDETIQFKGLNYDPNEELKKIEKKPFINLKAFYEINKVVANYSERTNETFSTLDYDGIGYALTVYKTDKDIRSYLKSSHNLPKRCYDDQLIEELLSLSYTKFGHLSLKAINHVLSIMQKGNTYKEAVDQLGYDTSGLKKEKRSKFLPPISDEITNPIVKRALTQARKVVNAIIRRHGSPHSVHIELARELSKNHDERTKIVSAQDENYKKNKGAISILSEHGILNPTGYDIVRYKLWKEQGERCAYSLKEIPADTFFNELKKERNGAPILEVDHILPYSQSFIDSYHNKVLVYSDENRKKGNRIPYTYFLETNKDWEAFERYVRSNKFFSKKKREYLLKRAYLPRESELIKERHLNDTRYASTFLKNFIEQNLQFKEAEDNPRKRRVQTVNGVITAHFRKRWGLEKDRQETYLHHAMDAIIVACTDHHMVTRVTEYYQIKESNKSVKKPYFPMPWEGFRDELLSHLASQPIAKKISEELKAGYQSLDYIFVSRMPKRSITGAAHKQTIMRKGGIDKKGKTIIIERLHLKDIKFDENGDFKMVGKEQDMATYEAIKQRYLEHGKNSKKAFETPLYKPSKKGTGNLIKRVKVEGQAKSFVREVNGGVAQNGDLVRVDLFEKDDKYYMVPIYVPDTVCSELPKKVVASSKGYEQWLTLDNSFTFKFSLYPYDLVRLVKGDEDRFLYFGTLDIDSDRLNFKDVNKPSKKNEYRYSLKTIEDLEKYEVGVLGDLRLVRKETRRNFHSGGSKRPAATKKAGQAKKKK

B1: SGN000930 sgRNA ; SGN000930 target (ssRNA ; dsDNA)
RNA: GAACAACUCAAAUGGAAAUGAAUAUGUCAUAGUUCCAUGAAAGCCAAAAGUGGCUUUGAUGUUUCUAUGAUAAGGGUUUCGGCCCGUGGCGUCGGGGAUCGCCUGCCCAUUCCGAUGGGCUUCUCCCCAUUUAUU
DNA 1: GAACAACTCAAATGGAAATGAATAT
DNA 2: ATATTCATTTCCATTTGAGTTGTTC
B2: SGN000194 sgRNA ; SGN000194 target (ssRNA ; dsDNA)
RNA: GCCGCACAGCAUUCAGGUCGGUCAUAGUUCCAUUAAAGCCAAAAGUGGCUUUGAUGUUUCUAUGAUAAGGGUUUCGACCCGUGGCGUCGGGGAUCGCCUGCCCAUUGAAAUGGGCUUCUCCCCAUUUAUU
DNA 1: GCCGCACAGCATTCAGGTCG
DNA 2: CGACCTGAATGCTGTGCGGC

Target: T1, APG30130-L32-nAPG07433.1
Test: cell_activity; HEK293FT; PAM SEQ 152
Settings: tags: SV40 NLS, 3xFLAG N-term; nucleoplasmin NLS C-term
Method in brief: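 Editing read out by next-generation sequencing (MiSeq 2×250) of PCR amplicons spanning the target site, analysed for INDELs or % cytosine conversion per position (position 1 nearest PAM).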

Binder	activity
B1	3.14 % mutated reads
B2	3.29 % mutated reads
